Data reported in article PMC4192513, “A Novel Protein-Protein Interaction in the RES (REtention and Splicing) Complex*” (The Journal of Biological Chemistry, 2014).
One block for each binder: values may come before it.

Experiments:
Snu17p (residues 1-113) [1] = biological target: T1, Snu17p (residues 1-113) (S. cerevisiae, UniProt P40565 1-113); experiment: NMR titration; 1H,15N correlation (HSQC) spectra of 15N-labelled Snu17p (residues 1-113) on addition of Bud13p peptides; 298 K; 20 mM sodium phosphate pH 6.3, 25 mM NaCl, 2 mM DTT or TCEP; conditions: both partners purified
T1 construct: 15N- or 15N/13C-labelled for NMR; also called Snu17p RRM with N-terminal unstructured extension; source: E. coli BL21(DE3) pLysS, purified (Ni-NTA, TEV cleavage, second Ni-NTA, SEC Superdex 75); not shown: His6, N-terminal, cleaved; GST, N-terminal, cleaved
T1 sequence (looked up): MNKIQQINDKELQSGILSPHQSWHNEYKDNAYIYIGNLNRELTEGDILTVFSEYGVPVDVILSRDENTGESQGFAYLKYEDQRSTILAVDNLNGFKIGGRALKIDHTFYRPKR

Snu17p (residues 1-113) [2] = biological target: T1, Snu17p (residues 1-113); experiment: ITC; VP-ITC, 25 °C, NMR buffer (20 mM sodium phosphate pH 6.3, 25 mM NaCl, 2 mM DTT or TCEP); Snu17p (residues 1-113) 30-70 uM in the cell, Bud13p ligands 0.6-1.1 mM in the syringe; one- or two-step binding models; conditions: both partners purified

binding result (Snu17p (residues 1-113) [1]): binds
B1: Bud13p (residues 201-266) (domain or fragment)
chain: not shown
notes: also called 66-mer Bud13p peptide; very long Bud13p peptide; source: E. coli BL21(DE3) pLysS, purified (Ni-NTA, TEV cleavage, second Ni-NTA, SEC Superdex 75); not shown: His6, N-terminal, cleaved; GST, N-terminal, cleaved

fold weaker dissociation constant than the longer Bud13p ligands (Snu17p (residues 1-113) [2]): 50 fold
B2: Bud13p peptide (residues 221-242) (peptide, UniProt P46947 221-242, looked up)
peptide: ENRFAIMPGSRWDGVHRSNGFE
notes: Bud13p, S. cerevisiae, residues 221-242; also called 22-mer Bud13p peptide; shorter Bud13p peptide; source: synthetic peptide, bought: Peptide Specialty Laboratories (Heidelberg), dialyzed
